Experimental data published in patent US20220125947A1 (published 2022).

Target: γδ T cell receptor on human γδ T cells (AG000003021) (human)
Experiment: flow cytometry, DRC binding at 37°C on human γδ T cells
Description: Binding of antibodies to human γδ T cells or SKW cell lines expressing Vγ9/Vδ2, Vγ9/Vδ2 or Vγ5/Vδ2 was carried out by flow cytometry. Briefly, the cells were centrifuged at 300×g for 5 minutes and the pellet was resuspended in 34 ml fresh media (in RPMI+10% FBS). 50 μL of the cells were then plated (44K cells/well) into assay plates. Samples were incubated for one hour at 37° C. in tissue culture (TC) incubator followed by wash steps by adding 100 μl FACS staining buffer. Secondary detention antibodies (A647 conjugated anti-human IgG Fc specific antibody (2 μg/mL) along with AF488 anti mouse CD3, clone OKT3 at 1 ug/mL) were added at 50 μL/well to appropriate wells according to the plate map. After incubating for 60 minutes at 37° C. in the TC incubator, cells were again washed as described above. This is followed by resuspension in 20 μL/well running buffer containing 1:1000 dilution of Sytox blue dead cell stain and the plates were run on iQue Screener.
Gating and data analysis: Human anti-human Vγ9 antibody (VG9B2 mAb at 10 nM) was used to mark the gating of positive population. All cells were first gated for singlets on SCS-A vs. SCS-H dot plot, live/dead followed by CD3 positive population, and this subset of CD3 positive population was gated for Vγ9 positive binding using positive control mAb. Cells were also assessed for cell binding of control mAbs by RL1 (A647) Geomeans from the live cell population. Advanced metrics were used and normalization metrics were chosen to calculate fold over background wells containing secondary antibody alone (designated as ‘background’ within ForeCyt settings).

| Binder | Max. Activity |
| --- | --- |
| VG9B198 (antibody, human IgG1, lambda, V domains shown, IgG1, lambda) VH: QVQLQESGPGLVKPSETLSLTCTVSGDSISSIYWSWIRQSAGKGLEWIGRIYTTDITNYNPSLKSRVTMSADTSKNQLSLKLTSVTAADTAVYYCAKNGYSYGGFNYWGQGTLVTVSS VL: QSVLTQPPSVSGAPGQRVTISCTGSSSNIGAGYDVHWYQRLPGTAPKLLIYGDSYRPSGVPDRFSGSKSGTSASLAITGLQAEDEADYYCQSYDSSLSVVVFGGGTKLTVLG | 3040 fold over background |
| VG9B121 (antibody, human IgG1, kappa, V domains shown, IgG1, kappa) VH: EVQLVESGGGLVKPGGSLRLSCVASGFTFSDYAMDWVRQAPGKGLDWISSISSTSNYIFYADSVKGRFTISRDNAKNSLYLQMNSLRVEDSAVYYCANSYNWNYGGAFDIWGQGTMVTVSS VL: DIQMTQSPGTLSSSPGERATLSCRASQSVSSSYFAWYQQKPGRAPRLLIYGASSRATGIPDRFSGSGSGTDFTLTISRLEPEDFAVYFCQQYGRSPLTFGGGTKVEIKR | 3670 fold over background |
| VG9B469 (antibody, human IgG1, kappa, V domains shown, IgG1, kappa) VH: EVQLVESGGGLVKPGGSLRLSCAASGFTFSHYDMNWVRQAPGKGLEWVSSISSSSSYIFYADSVKGRFTISRDNAKNSLLLQMNSLRAEDTAVYHCARDRGVGDTSDYYSFGLDVWGQGTMVTVSS VL: DIVMTQSPGTLSLSPGERATLSCRASQNVSSTYLAWYQQKPGQAPRLLIYGACSRATGIPDRFSGSGSGTDFTLTISRLEPEDYAVYYCQQYGSSPPYTFGRGTKLEIKR | 3000 fold over background |
| VG9B104 (antibody, human IgG1, kappa, V domains shown, IgG1, kappa) VH: EVQLVESGGGLVKPGGSLRLSCAASGFTFSVYSMNWVRQAPGKGLEWVSSIGSSSSYIFYADSVKGRFTISRDNAKNSLYLQMNSLRAEDTAVYYCGRDHDYGGLDYWGQGTLVTVSS VL: EIVLTQSPGTLSLSPGERATLSCRASQSVSSSYLAWYQQKPGQAPRLLIYGPSNRATDIPDRFSGTGSGTDFTLTISRLEPEDFAVYYCQQYGRSPLTFGGGTKVEIKR | 3050 fold over background |
| VG9B46 (antibody, human IgG1, kappa, V domains shown, IgG1, kappa) VH: EVQLVESGGGLVKPGGSLRLSCEASGFTFSINSMNWVRQAPGKGLEWVSSISSTSDYIFNADSVKGRFTISRDNAKNSLYLQMNSLRAEDTAVYYCVRDDVFGAFDIWGQGTMVTVSS VL: EIVLTQSPGTLSLSPGERATLSCRTSQSVSRSYLGWYQQKPGQPPRLLIFGSSSRATGIPDRFSGSGSGTDFTLTISRLEPEDFAVYYCQQYSRSPLTFGGGTKVDIKR | 3210 fold over background |
| VG9B69 (antibody, human IgG1, kappa, V domains shown, IgG1, kappa) VH: EVQLVESGGGLVKPGGSLRLSCAASGFTFSSYDINWVRQAPGKGLEWVSSITSSSYYIYYADSVKGRFTISRDNAKNSLYLQMNSLRAEDTAVYYCARDLGVRGVDYYYYGLDVWGQGTMVTVSS VL: not shown | 3110 fold over background |
| VG9B463 (antibody, human IgG1, lambda, V domains shown, IgG1, lambda) VH: EVQLVESGGGLVKPGGSLRLSCSASGFTFSNYDMNWVRQAPGKGLEWVSSISSSSSYIYYADSVKGRFTISRDNAKNSLYLQMNSLRAEDTAVYHCARDVGVTTDYYYYGMDVWGQGTTVTVSS VL: QPVLTQSSSASGTPGQRVTISCSGSSSNIGSNTVNWYQQFPGTAPKLLIYTNTQRPSGVPDRFSGSKSGTLVSLAISGLQSEDEADYYCAAWDDSLNAWVFGGGTKLTVLG | 3030 fold over background |
| VG9B416 (antibody, human IgG1, kappa, IgG1, kappa) heavy: not shown light: EIVLTQSPGTLSLSPGDRATLSCRASQSVASSYLAWYQQKPGQSPRLLIYGASSRATGIPDRFSGSGSGTDFTLTISRLEPEDFAVYYCQQYGSSPPYTFGQGTKLEIKRTVAAPSVFIFPPSDEQLKSGTASVVCLLNNFYPREAKVQWKVDNALQSGNSQESVTEQDSKDSTYSLSSTLTLSKADYEKHKVYACEVTHQGLSSPVTKSFNRGEC | 3120 fold over background |
